Measured values from patent publication US20210380703A1 (RIGEL PHARMACEUTICALS, published 2021).

Target: ACVR2A on primary human myotubes (human, UniProt P27037 20-513)
Experiment: cell-based or functional assay

ACVR2A on primary human myotubes, sequence (P27037 20-513): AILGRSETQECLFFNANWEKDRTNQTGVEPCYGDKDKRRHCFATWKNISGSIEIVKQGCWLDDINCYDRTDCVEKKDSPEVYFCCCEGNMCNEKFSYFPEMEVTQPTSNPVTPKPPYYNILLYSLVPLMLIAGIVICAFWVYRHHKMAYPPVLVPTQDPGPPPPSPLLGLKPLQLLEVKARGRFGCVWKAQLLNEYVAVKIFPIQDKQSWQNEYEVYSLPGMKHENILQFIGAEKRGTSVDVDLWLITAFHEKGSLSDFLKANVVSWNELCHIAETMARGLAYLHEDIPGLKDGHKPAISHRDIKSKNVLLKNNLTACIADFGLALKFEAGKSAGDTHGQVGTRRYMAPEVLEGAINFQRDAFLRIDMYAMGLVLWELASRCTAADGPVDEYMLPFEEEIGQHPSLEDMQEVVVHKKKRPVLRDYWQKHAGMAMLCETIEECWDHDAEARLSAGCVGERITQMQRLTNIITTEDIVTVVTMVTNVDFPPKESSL

Row | Phospho-SMAD3 Human Skeletal Muscle GDF8 | Binder
1 | 0.0392 | 366_B12 (antibody, V domains shown) VH: EVQLLESGGGLVQPGGSLRLSCAASGFTFSSYSMNWVRQAPGKGLEWVAGINYNSGYKGYADSVKGRFTISRDNSKNTLYLQMNSLRAEDTAVYYCARSANWHDTALDYWGQGTLVTVSS VL: DIQMTQSPSSLSASVGDRVTITCRASQSILTYVNWYQQKPGKAPKLLIYAATSRASGVPSRFSGSGSGTDFTLTISSLQPEDFATYYCQQSYDNPLTFGGGTKVEIK
2 | 0.0093 | 373_B04 (antibody, V domains shown) VH: EVQLLESGGGLVQPGGSLRLSCAASGFTFSSYGMNWVRQAPGKGLEWVAGINYNSGYKGYADSVKGRFTISRDNSKNTLYLQMNSLRAEDTAVYYCARSANWHDTALDYWGQGTLVTVSS VL: DIQMTQSPSSLSASVGDRVTITCRASQSILTYLNWYQQKPGKAPKLLIYAATSRASGVPSRFSGSGSGTDFTLTISSLQPEDFATYYCQQSYETPLTFGGGTKVEIK
3 | 0.018 | 372_F09 (antibody, V domains shown) VH: EVQLLESGGGLVQPGGSLRLSCAASGFTFDSYSMNWVRQAPGKGLEWVANINYNSGYKGYADSVKGRFTISRDNSKNTLYLQMNSLRAEDTAVYYCARSANWHDTALDYWGQGTLVTVSS VL: DIQMTQSPSSLSASVGDRVTITCRASQSILTYLNWYQQKPGKAPKLVIYAATSLASGVPSRFSGSGSGTDFTLTISSLQPEDFATYYCQQSYSSPLTFGGGTKVEIK
4 | 0.0646 | 372_F03 (antibody, V domains shown) VH: EVQLLESGGGLVQPGGSLRLSCAASGFTFSSYGMNWVRQAPGKGLEWVAGINYNGGYTSYADSVKGRFTISRDNSKNTLYLQMNSLRAEDTAVYYCARSANWHDTALDYWGQGTLVTVSS VL: DIQMTQSPSSLSASVGDRVTITCRASQSILSYLNWYQQKPGKAPKLVIYAATSRASGVPSRFSGSGSGTDFTLTISSLQPEDFATYYCQQSYDTPLTFGGGTKVEIK
5 | 0.0402 | 371_B07 (antibody, V domains shown) VH: EVQLLESGGGLVQPGGSLRLSCAASGFTFDSYSMNWVRQAPGKGLEWVAGINYNGGYTSYADSVKGRFTISRDNSKNTLYLQMNSLRAEDTAVYYCARSANWHDTALDYWGQGTLVTVSS VL: DIQMTQSPSSLSASVGDRVTITCRASQSILTYVNWYQQKPGKAPKLLIYAATSRASGVPSRFSGSGSGTDFTLTISSLQPEDFATYYCQQSYELPLTFGGGTKVEIK
6 | 0.0632 | 370_A12 (antibody, V domains shown) VH: EVQLLESGGGLVQPGGSLRLSCAASGFTFSSYGMNWVRQAPGKGLEWVAGINYNGGYTSYADSVKGRFTISRDNSKNTLYLQMNSLRAEDTAVYYCARSANWHDTALDYWGQGTLVTVSS VL: DIQMTQSPSSLSASVGDRVTITCRASQSILTYLNWYQQKPGKAPKLLIYAATSLASGVPSRFSGSGSGTDFTLTISSLQPEDFATYYCQQSYDSPLTFGGGTKVEIK
7 | 0.0068 | 369_H06 (antibody, V domains shown) VH: EVQLLESGGGLVQPGGSLRLSCAASGFTFSSYGMNWVRQAPGKGLEWVANINYNGGYKSYADSVKGRFTISRDNSKNTLYLQMNSLRAEDTAVYYCARSANWHDTALDYWGQGTLVTVSS VL: DIQMTQSPSSLSASVGDRVTITCRASQSIVSYVNWYQQKPGKAPKLLIYAATSRASGVPSRFSGSGSGTDFTLTISSLQPEDFATYYCQQSYDTPLTFGGGTKVEIK
8 | 0.0093 | 370_H01 (antibody, V domains shown) VH: EVQLLESGGGLVQPGGSLRLSCAASGFTFSSYSMNWVRQAPGKGLEWVSGINYNSGYKGYADSVKGRFTISRDNSKNTLYLQMNSLRAEDTAVYYCARSANWHDTALDYWGQGTLVTVSS VL: DIQMTQSPSSLSASVGDRVTITCRASQSIISYLNWYQQKPGKAPKLLIYAVTSRASGVPSRFSGSGSGTDFTLTISSLQPEDFATYYCQQSYDTPLTFGGGTKVEIK
9 | 0.0193 | 372_A04 (antibody, V domains shown) VH: EVQLLESGGGLVQPGGSLRLSCAASGFTFDSYSMNWVRQAPGKGLEWVSGINYNSGYTSYADSVKGRFTISRDNSKNTLYLQMNSLRAEDTAVYYCARSANWHDTALDYWGQGTLVTVSS VL: DIQMTQSPSSLSASVGDRVTITCRASQSILTYLNWYQQKPGKAPKLVIYAATSRASGVPSRFSGSGSGTDFTLTISSLQPEDFATYYCQQSYETPLTFGGGTKVEIK
10 | 0.108 | 367_H06 (antibody, V domains shown) VH: EVQLLESGGGLVQPGGSLRLSCAASGFTFSSYGMNWVRQAPGKGLEWVSNINYNGGYTGYADSVKGRFTISRDNSKNTLYLQMNSLRAEDTAVYYCARSANWHDTHLDYWGQGTLVTVSS VL: DIQMTQSPSSLSASVGDRVTITCRASQSIITYLNWYQQKPGKAPKLLIYAATSRASGVPSRFSGSGSGTDFTLTISSLQPEDFATYYCQQSYDTPLTFGGGTKVEIK
11 | 0.903 | 365_A12 (antibody, V domains shown) VH: EVQLLESGGGLVQPGGSLRLSCAASGFTFSSYGMHWVRQAPGKGLEWVAGINYNGGYTSYADSVKGRFTISRDNSKNTLYLQMNSLRAEDTAVYYCAKSANWHDTHLDYWGQGTLVTVSS VL: DIQMTQSPSSLSASVGDRVTITCRASQSILTYVNWYQQKPGKAPKLLIYAATSRHSGVPSRFSGSGSGTDFTLTISSLQPEDFATYYCQQSYENPLTFGGGTKVEIK
12 | 0.0082 | 370_C05 (antibody, V domains shown) VH: EVQLLESGGGLVQPGGSLRLSCAASGFTFSSYSMNWVRQAPGKGLEWVAGINYNSGYTGYADSVKGRFTISRDNSKNTLYLQMNSLRAEDTAVYYCARSANWHDTALDYWGQGTLVTVSS VL: DIQMTQSPSSLSASVGDRVTITCRASQSILSYVNWYQQKPGKAPKLVIYAATSRASGVPSRFSGSGSGTDFTLTISSLQPEDFATYYCQQSYNSPLTFGGGTKVEIK
13 | 0.341 | 365_E02 (antibody, V domains shown) VH: EVQLLESGGGLVQPGGSLRLSCAASGFTFSSYSMNWVRQAPGKGLEWVANINYNGGYTSYADSVKGRFTISRDNSKNTLYLQMNSLRAEDTAVYYCAKSATWHDTHLDYWGQGTLVTVSS VL: DIQMTQSPSSLSASVGDRVTITCRASQSIISYLNWYQQKPGKAPKLLIYAATSRASGVPSRFSGSGSGTDFTLTISSLQPEDFATYYCQQSYENPLTFGGGTKVEIK
14 | 0.0703 | 367_H11 (antibody, V domains shown) VH: EVQLLESGGGLVQPGGSLRLSCAASGFTFSSYGMNWVRQAPGKGLEWVAGINYNGGYKGYADSVKGRFTISRDNSKNTLYLQMNSLRAEDTAVYYCARSANWHDTALDYWGQGTLVTVSS VL: DIQMTQSPSSLSASVGDRVTITCRASQSIISYVNWYQQKPGKAPKLVIYAATSRASGVPSRFSGSGSGTDFTLTISSLQPEDFATYYCQQSYNSPLTFGGGTKVEIK
15 | 0.0116 | 369_G01 (antibody, V domains shown) VH: EVQLLESGGGLVQPGGSLRLSCAASGFTFSSYSMNWVRQAPGKGLEWVSNINYNSGYKSYADSVKGRFTISRDNSKNTLYLQMNSLRAEDTAVYYCARSANWHDTALDYWGQGTLVTVSS VL: DIQMTQSPSSLSASVGDRVTITCRASQSILSYVNWYQQKPGKAPKLLIYAATSRASGVPSRFSGSGSGTDFTLTISSLQPEDFATYYCQQSYSSPLTFGGGTKVEIK
